From patent US20240181135A1, “BIOCHEMICAL ACTIVATION OF DYSFUNCTIONAL SKELETAL STEM CELLS FOR SKELETAL REGENERATION” (The Board of Trustees of the Leland Stanford Junior …, priority 2021, published 2024)

System: femoral fractures of ‘2-mo’ mice
Assay: Hydrogels containing recombinant Csf1 applied to femoral fractures of young mice (μCT and flow cytometry)
Type: in vivo, mouse
Settings: 5 μg recombinant Csf1 in hydrogel, versus PBS
Excerpt: We also tested whether these increases in Csf1 affected bone maintenance and regeneration. […] Unexpectedly, however, femora harvested from transgenic mice at post-fracture day-21 had decreased mechanical strength compared to wild-type controls despite having increased BMD and similar callus volume (FIG. 3p-q & FIG. 11g). […] In total, SSC lineage derived Csf1 might drive increased bone resorption by stimulating higher osteoclast activity, and this activity needs to be maintained and finely balanced for proper bone health.
Bi-cortical femoral fracture: Animals were anaesthetized using aerosolized isoflurane and analgesia was administered before incision. The femur was exposed following muscle distraction and lateral dislocation of the patella. […]
Micro-computed tomography: Femora were harvested and cleaned of soft tissue. […] Reconstructed samples were analyzed using CT Analyser and CTvox software (Bruker). Trabecular bone parameters of uninjured femur bones were assessed by analyzing a region of 200 sections which was defined 50 sections distal of the end of the growth plate. Fracture calluses were analyzed by selecting 150 sections in both directions of the fracture gap yielding a total area of 300 sections. […]

B1: recombinant Csf1: recombinant Csf1 (5 μg) in hydrogel with defined release kinetics, applied to fractures (protein, UniProt P07141 33-552, looked up)
Macrophage colony-stimulating …: KEVSEHCSHMIGNGHLKVLQQLIDSQMETSCQIAFEFVDQEQLDDPVCYLKKAFFLVQDIIDETMRFKDNTPNANATERLQELSNNLNSCFTKDYEEQNKACVRTFHETPLQLLEKIKNFFNETKNLLEKDWNIFTKNCNNSFAKCSSRDVVTKPDCNCLYPKATPSSDPASASPHQPPAPSMAPLAGLAWDDSQRTEGSSLLPSELPLRIEDPGSAKQRPPRSTCQTLESTEQPNHGDRLTEDSQPHPSAGGPVPGVEDILESSLGTNWVLEEASGEASEGFLTQEAKFSPSTPVGGSIQAETDRPRALSASPFPKSTEDQKPVDITDRPLTEVNPMRPIGQTQNNTPEKTDGTSTLREDHQEPGSPHIATPNPQRVSNSATPVAQLLLPKSHSWGIVLPLGELEGKRSTRDRRSPAELEGGSASEGAARPVARFNSIPLTDTGHVEQHEGSSDPQIPESVFHLLVPGIILVLLTVGGLLFYKWKWRSHRDPQTLDSSVGRPEDSSLTQDEDRQVELPV
modifications: in hydrogel
notes: recombinant Csf1 (5 μg) in hydrogel with defined release kinetics, applied to fractures
For B1, the “Fracture healing (μCT of day-10 calluses)” value was “impaired healing” and the “SSC frequency at day-10 (flow cytometry)” value was “without alteration of SSC frequency”.
